This note sets out measurements from patent US20030073218.

The data set deals with RR-Src peptide.

On to “GST-XD4 (glutathione S-transferase fusion of the XD4 fragment of v-Src, wild-type catalytic domain)”, for which the KM (mM) for protein substrate RR-Src, ATP saturated is 2.6 mM.
On to GST-XD4(V323A, I338A), for which the KM (mM) for protein substrate RR-Src, ATP saturated is 3.1 mM and the KM (mM) for protein substrate RR-Src, N^6-(cyclopentyl)ATP saturated is 2.1 mM.
